This test has as its target T1, β-catenin (mouse, UniProt Q02248 2-781).
T1 construct: whole, on cells; Detected by immunostaining; also called B-catenin
T1 sequence (looked up): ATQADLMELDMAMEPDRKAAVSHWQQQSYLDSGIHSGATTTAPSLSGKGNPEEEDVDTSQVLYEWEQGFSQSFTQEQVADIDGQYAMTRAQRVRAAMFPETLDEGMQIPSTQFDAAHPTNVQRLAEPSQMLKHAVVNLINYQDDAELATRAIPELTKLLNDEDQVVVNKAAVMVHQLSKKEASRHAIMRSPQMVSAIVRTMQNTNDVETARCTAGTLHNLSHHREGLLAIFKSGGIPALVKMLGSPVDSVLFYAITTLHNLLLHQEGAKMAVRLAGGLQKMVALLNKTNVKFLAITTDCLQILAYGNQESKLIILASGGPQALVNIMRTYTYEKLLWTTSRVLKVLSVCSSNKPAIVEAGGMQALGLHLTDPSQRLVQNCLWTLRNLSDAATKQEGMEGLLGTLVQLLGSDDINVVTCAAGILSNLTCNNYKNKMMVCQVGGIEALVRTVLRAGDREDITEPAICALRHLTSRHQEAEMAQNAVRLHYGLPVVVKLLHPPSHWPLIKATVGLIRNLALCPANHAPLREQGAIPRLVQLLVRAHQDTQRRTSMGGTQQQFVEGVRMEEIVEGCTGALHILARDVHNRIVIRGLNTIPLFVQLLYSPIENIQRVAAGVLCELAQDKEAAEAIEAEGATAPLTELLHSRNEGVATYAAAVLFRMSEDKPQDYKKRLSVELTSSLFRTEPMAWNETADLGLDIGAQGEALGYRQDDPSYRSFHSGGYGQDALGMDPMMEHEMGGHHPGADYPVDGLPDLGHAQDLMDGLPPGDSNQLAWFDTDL
The test is described as follows: co-immunostaining of wild-type mouse intestine sections (FIG. 7G).

B1: N-cadherin (other, mouse, UniProt P15116 160-906, looked up)
chain: DWVIPPINLPENSRGPFPQELVRIRSDRDKNLSLRYSVTGPGADQPPTGIFIINPISGQLSVTKPLDRELIARFHLRAHAVDINGNQVENPIDIVINVIDMNDNRPEFLHQVWNGSVPEGSKPGTYVMTVTAIDADDPNALNGMLRYRILSQAPSTPSPNMFTINNETGDIITVAAGLDREKVQQYTLIIQATDMEGNPTYGLSNTATAVITVTDVNDNPPEFTAMTFYGEVPENRVDVIVANLTVTDKDQPHTPAWNAAYRISGGDPTGRFAILTDPNSNDGLVTVVKPIDFETNRMFVLTVAAENQVPLAKGIQHPPQSTATVSVTVIDVNENPYFAPNPKIIRQEEGLHAGTMLTTLTAQDPDRYMQQNIRYTKLSDPANWLKIDPVNGQITTIAVLDRESPNVKNNIYNATFLASDNGIPPMSGTGTLQIYLLDINDNAPQVLPQEAETCETPEPNSINITALDYDIDPNAGPFAFDLPLSPVTIKRNWTINRLNGDFAQLNLKIKFLEAGIYEVPIIITDSGNPPKSNISILRVKVCQCDSNGDCTDVDRIVGAGLGTGAIIAILLCIIILLILVLMFVVWMKRRDKERQAKQLLIDPEDDVRDNILKYDEEGGGEEDQDYDLSQLQQPDTVEPDAIKPVGIRRLDERPIHAEPQYPVRSAAPHPGDIGDFINEGLKAADNDPTAPPYDSLLVFDYEGSGSTAGSLSSLNSSSSGGDQDYDYLNDWGPRFKKLADMYGGGDD
notes: whole, on cells; Detected by immunostaining
For B1, the binding result is “binds”.
